Entries after “also recorded” stand apart in the source; their conditions may differ.
Experiments:
Format in all cases: biochemical
Dutch/Iowa Aβ40 (Aβ40DI) = Dutch/Iowa Aβ40 (Aβ40DI) (Homo sapiens, UniProt P05067, D694N/E693Q); test: TEM and single-touch AFM of Aβ40DI fibril formation
Protocol: FIG. 18 Inhibition of Aβ40DI fibril formation by MBP as assessed by TEM and single-touch AFM analyses. Aβ40DI peptides at a concentration of 12.5 μM in PBS in the absence or presence of 1.56 μM MBP. Samples were imaged at 6 h by TEM (A and B) and at 3 h by single-touch AFM (D and E). Aliquots of 1.56 μM MBP alone were imaged by TEM (C) and by AFM (F).
For electron microscopy, a 20 μl aliquot of the sample mixture was deposited onto a Formvar-coated copper mesh grid. The sample was allowed to stand for 60 s, and excess solution was wicked away. The samples were negatively stained with 2% (w/v) uranyl acetate. The excess stain was wicked away, and the sample was allowed to dry. The samples were viewed with an FEI Tecnai 12 BioTwin transmission electron microscope, and digital images were taken with an Advanced Microscopy Techniques camera.
Atomic force microscopy (“AFM”) was carried out using a lifeScan controller (LifeAFM Inc., Port Jefferson, N.Y.) interfaced with a MultiMode microscope (Digital Instruments, Santa Barbara, Calif.) fitted with an E seamier. With this instrument configuration, only a single contact of the AFM probe is made with the sample per pixel. Computer control of the cantilever position and angle during approach allows for detection of the sample height with minimum cantilever deflection, allowing for a minimum compressive force (30-100 piconewtons/nm) applied to the sample. AFM samples were prepared by adsorbing 20 μl of sample mixture to freshly cleaved ruby mica (S & J Trading, Inc., Glen Oaks, N.Y.) for 45 min to 1 h. The samples were rehydrated with ultrapure Milli-Q water (Millipore Corp., Billerica, Mass.) and immediately imaged. Samples were imaged using SuperSharpSilicon probes (SSS-CONT, NANOSENSORS, Neuchatel, Switzerland) that were modified for magnetic retraction by attaching samarium cobalt particles. The effective diameter of the SuperSharpSilicon probes was 4±1 nm at a height of 2 nm. Data analysis and graphics were performed using Interactive Display Language Version 5.0 (Research Systems, Inc., Boulder, Colo.). In the Z-scale bars, numbers in each color square indicate the Z-value at the middle of the range for that color.

Aβ42WT = Aβ42WT (Homo sapiens, UniProt P05067); test: Circular dichroism spectroscopy of Aβ42WT β-sheet formation; details: MBP added to incubates, 37° C.
Description: Aβ42 (□), MBP (□), Aβ42 with MBP (□).
The formation of β-sheet fibrils may be evaluated by circular dichroism (“CD”) spectroscopy. The technique is based on circularly polarized light. The secondary structure of proteins tends to “distort” the polarization toward the elliptical. The degree and direction of the distortion over a range of wavelengths produces spectra that are characteristic of the protein under examination and its secondary structure. One such method, suitable for use in embodiments of the present invention, is summarized below:
Preferably, purified protein is placed in detergent-free, low-salt buffer in a cuvette having a lightpath length on the order of 1 mm. The optimal concentration of the protein may be determined by standard techniques well-known in the art, and confirmed by comparing the spectrum over a range of concentrations, using an instrument (e.g., JASCO) and cuvette properly calibrated with a standard such as d-10-camphorsulfonic acid in water. To acquire a CD spectrum, the sample is scanned over a wavelength range of about 180-260 nm (spectral width approx. 1 nm). A suitable scan rate is of the order of 100 nm/min for a response time of about 2 seconds. Preferably, however, slower scan speeds (e.g., 5 nm/min, response time around 20 seconds) are used to reduce noise.

wild-type Aβ42 = wild-type Aβ42 (Homo sapiens, UniProt P05067); test: Thioflavin T fluorescence assay of Aβ42 fibril formation; details: 12.5 μM Aβ42, 1.56 μM MBP
Protocol: FIG. 19 Thioflavin T analysis for inhibition of Aβ42 fibril formation by MBP. Aβ42 at a concentration of 12.5 μM in PBS in the absence (diamond) or presence of 1.56 μM MBP (triangle) or 1.56 μM […]-lactalbumin (square) as control. The data shown are the mean S.D. of triplicate samples.
The Aβ B binding properties of the exemplary fragments of MBP described herein were determined in a thioflavin T fluorescence assay as follows: Lyophilized Aβ peptides were first resuspended with Me2SO to 2.5 mM, diluted to 12.5 μM in PBS, and then incubated at 37° C. with rocking either alone or with 1.56 μM MBP or bovine α-lactalbumin. Control samples containing 0.5% Me2SO and 1.56 μM MBP or lactalbumin in PBS were also included. At each time point, 100 μl samples of each reaction were placed in a 96-well microplate in triplicate, and 5 μl of 100 µM thioflavin T was added. The plate was mixed and incubated at 22° C. in the dark for 10 min. Fluorescence was measured at 490 nm with an excitation wavelength of 446 nm in a SpectraMax spectrofluorometer (Molecular Devices, Sunnyvale, Calif.) using SoftMax Pro control software. It is apparent that the method enables persons of skill in the art to determine the binding properties of MBP, variants thereof, and fragments thereof for any Aβ-peptide, including mutants thereof.

[1] = in the presence of MBP at 3 hours

B1: myelin basic protein (protein)
chain: ASQKRPSQRHGSKYLATASTMDHARHGFLPRHRDTGILDSIGRFFGGDRGAPKRGSGKDSHHPARTAHYGSLPQKSHGRTQDENPVVHFFKNIVTPRTPPPSQGKGRGLSLSRFSWGAEGQRPGFGYGGRASDYKSAHKGFKGVDAQGTLSKIFKLGGRDSRSGSPMARR
notes: myelin basic protein, major form about 18.5 Kd (170 residues); purified protein
Dutch/Iowa Aβ40 (Aβ40DI); 1.56 μM MBP alone
  aggregation of MBP alone (TEM and AFM): does not aggregate significantly
Dutch/Iowa Aβ40 (Aβ40DI); 6 hours, sub-stoichiometric MBP
  Aβ40DI fibril formation by TEM: no evidence of fibril formation
Dutch/Iowa Aβ40 (Aβ40DI); [1]
  heights of Aβ40DI oligomers and protofibrils by AFM: ≈ 2 nm
  lengths of Aβ40DI oligomers and protofibrils by AFM: < 200 nm
Aβ42WT
  Aβ42WT fibril formation by circular dichroism: prevents fibril formation
wild-type Aβ42
  inhibition of wild-type Aβ42 fibrillogenesis (thioflavin T): prevents fibrillization; also recorded: inhibited
